Test results as given in publication PMC8556327.
Several values for one entry are separate records, joined by “and”; a condition that tells them apart may be missing. Equal values may be shown once.

Assays:
[1] = biological target: C-phycocyanin (αβ) monomer from Thermoleptolyngbya sp. O-77 (TlCPC) (Thermoleptolyngbya sp. O-77); experiment: crystal structure; TlCPC-8 crystals (cube), sitting-drop vapor diffusion at 20 °C (also obtained at 42 °C); reservoir 1.6 M sodium chloride, 8% polyethylene glycol 6,000, 20% glycerol; space group I432; 2.77 Å
[2] = biological target: C-phycocyanin (αβ) monomer from Thermoleptolyngbya sp. O-77 (TlCPC) (Thermoleptolyngbya sp. O-77); experiment: AUC; sedimentation velocity, TlCPC 0.92 mg/mL in potassium phosphate buffer (pH 7.0, 10 mM), 20 °C, 60,000 rpm, absorbance at 277 nm, c(s) distribution (SEDFIT); major species 5.24 S, minor species 3.15 S (monomer), 7.97 S and 11.32 S
[3] = biological target: C-phycocyanin (αβ) monomer from Thermoleptolyngbya sp. O-77 (TlCPC) (Thermoleptolyngbya sp. O-77); experiment: crystal structure; TlCPC-6 crystals (rhombus or rod), sitting-drop vapor diffusion at 20 °C; reservoir 8% Tacsimate (pH 5.0), 20% polyethylene glycol 3,350; 1.65 Å
[4] = biological target: C-phycocyanin (αβ) monomer from Thermoleptolyngbya sp. O-77 (TlCPC) (Thermoleptolyngbya sp. O-77); experiment: cryo-EM structure; TlCPC 6.7 and 10 mg/mL in potassium phosphate buffer (pH 7.0, 10 mM), flash-frozen on holey carbon grid; single particle analysis; hexamers and octamers in the same specimens

“C-phycocyanin (αβ) monomer from Thermoleptolyngbya sp. O-77 (TlCPC) (complex)” was tested. Which stoichiometry N [1] did it give?
Its stoichiometry N is 8.

What about the stoichiometry N [2] of the same substance?
Its stoichiometry N is 2 and 6 and 4.

And the stoichiometry N [3]?
The stoichiometry N was 6.

What about the stoichiometry N [4] of the same substance?
Its stoichiometry N is 6 and 8.
